Reference: patent US20220143148A1, “COMPOSITIONS AND METHODS FOR MODULATING CGRP SIGNALING TO REGULATE INTESTINAL INNATE LYMPHOID CELLS” (The Broad Institute, Inc., priority 2019, published 2022)

Test system: small intestinal immune cells
Test: Droplet-based scRNA-seq of small intestinal immune cells (LP and PP), OVA vs PBS, clustering and differential expression
Format: in vivo, mouse
Conditions: cluster ID 12, LP; for LN (average fold change): OVA vs PBS
Source text: To comprehensively characterize small intestinal immune cells, Applicants generated scRNA-Seq profiles for 58,067 immune cells collected from lamina propria (LP) and Peyer's patch (PP) regions at steady state and after induction of a type 2 inflammatory reaction to ovalbumin (OVA) (Brandt et al., 2003) (FIGS. 1A and 8A). To ensure sufficient representation of rare cells, Applicants combined a normalization strategy—removing by flow sorting either a portion of IgD+ naïve B cells, which are the most abundant cell type in PPs, or all CD19+ and CD3+ T cells (FIG. 8B, Methods)—with profiling of a sufficiently large number of cells number (P>0.99 to recover at least 15 cells from each cluster, Methods) by massively parallel scRNA-seq (Haber et al., 2017) (Methods). Applicants obtained 36,797 and 21,270 high quality cells passing initial filtering (Methods) from PP and LP regions, respectively.
Overall, Applicants annotated 27 cell subsets across the two compartments, spanning T cells, B cells, ILCs, dendritic cells (DCs), myeloid cells and stromal cells, in frequencies ranging from 0.07% to 14%. Briefly, Applicants first partitioned the cells from the PP regions by unsupervised clustering (Methods) into 46 clusters, retained the 97% of cells that were robustly assigned cell identities in each cluster (Methods), assigned the cells from the LP regions to the 46 clusters using a classifier (Methods), and visualized the data with scvis (Ding et al., 2018), a deep generative model-based method (FIGS. 1B and 8C, Methods). Next, Applicants identified genes that were differentially expressed between the cells in each cluster and the remaining cells (Table 1, Methods), as well as between pairs of clusters (Table 2), to elucidate identities of similar cell types/states. Applicants excluded from downstream analysis clusters mostly consisting of contaminants from epithelium, likely doublets, or cells with a small number of Unique Molecular Identifiers (UMIs) (FIGS. 1C and 8D), or lacking distinct markers (Methods). Altogether, Applicants retained 27 clusters spanning 85% of the cells and each associated with distinct marker genes (FIG. 8E, Methods).
To induce allergic reaction to OVA, 6 to 7 weeks old mice were sensitized twice, two weeks apart, with 50 μg of OVA plus 1 mg of aluminum potassium sulfate adjuvant via intraperitoneal injection. Two weeks later, mice were orally administered with 50 mg of OVA on every other day for a total of five times. 1 μg of α-CGRP peptide was administered simultaneously when indicated. Mice were deprived of food for 3-4 hours in cages with wood chip bedding for limiting antigen degradation in the stomach before each intragastric challenge.
Isolation of cells from Peyer's patches (PPs). Peyer's patches (PPs) were carefully dissected from the small intestine under a stereo microscope using a fine scissor, pierced once with a fine forcep. Tissues were digested in freshly made digestion buffer (RPMI-1640 containing 100 μg/ml Liberase™ and 50 μg/ml DNase I at 37° C. on a roto-mixer. After 15 min, tissues were very gently mixed using a 1 ml pipette. The supernatant was collected and added to ice-cold MACS buffer (pH 7.4; PBS plus 2% FCS and 2 mM EDTA). Pre-warmed (37° C.) fresh digestion buffer was added to the remaining tissues. After rotation at 37° C. for 15 min, the mixture was vigorously mixed using a 1 ml pipette for 1 min. Supernatants from the two steps were combined and passed through 70 μm filters and stained for FACS (below).
Isolation of cells from the lamina propria (LP). The small intestines were opened longitudinally and washed in ice-cold PBS. For scRNA-seq, roughly 0.5 cm of fragments from each of the distal, middle and proximal regions without visible PPs were collected. Epithelial cells were dissociated by tissue rotation in pre-warmed (37° C.) PBS containing 10 mM EDTA at 37° C. for 15 min, followed by additional incubation on ice for 15 min. Tissues were then shaken vigorously. […]

B1: OVA (protein, UniProt P01012 2-386, looked up)
Ovalbumin: GSIGAASMEFCFDVFKELKVHHANENIFYCPIAIMSALAMVYLGAKDSTRTQINKVVRFDKLPGFGDSIEAQCGTSVNVHSSLRDILNQITKPNDVYSFSLASRLYAEERYPILPEYLQCVKELYRGGLEPINFQTAADQARELINSWVESQTNGIIRNVLQPSSVDSQTAMVLVNAIVFKGLWEKAFKDEDTQAMPFRVTEQESKPVQMMYQIGLFRVASMASEKMKILELPFASGTMSMLVLLPDEVSGLEQLESIINFEKLTEWTSSNVMEERKIKVYLPRMKMEEKYNLTSVLMAMGITDVFSSSANLSGISSAESLKISQAVHAAHAEINEAGREVVGSAEAGVDAASVSEEFRADHPFLFCIKHIATNAVLFFGRCVSP
B1 was tested, and the “percentage of expressing cells in OVA-treated group” value (“percentage of expressing cells” for short) (gene Ero1l) was 0.399, the “LN (average fold change)” value (gene Ero1l) was 0.949 and the “percentage of expressing cells” value (gene Fgl2) was 0.61. For the same molecule, the “LN (average fold change)” value (gene Fgl2) was 0.609, the “percentage of expressing cells” value (gene Fth1) was 0.963 and the “LN (average fold change)” value (gene Fth1) was −0.236. The “percentage of expressing cells” value (gene Fxyd5) was 0.564, the “LN (average fold change)” value (gene Fxyd5) was 0.407 and the “percentage of expressing cells” value (gene Galnt12) was 0.086. The “LN (average fold change)” value (gene Galnt12) was −0.960, the “percentage of expressing cells” value (gene Gapdh) was 0.561 and the “LN (average fold change)” value (gene Gapdh) was 0.420. The “percentage of expressing cells” value (gene Gimap5) was 0.338, the “LN (average fold change)” value (gene Gimap5) was 0.779 and the “percentage of expressing cells” value (gene Glul) was 0.184. For the same molecule, the “LN (average fold change)” value (gene Glul) was −1.009, the “percentage of expressing cells” value (gene Gmfg) was 0.31 and the “LN (average fold change)” value (gene Gmfg) was 0.821. The “percentage of expressing cells” value (gene Gpr132) was 0.399, the “LN (average fold change)” value (gene Gpr132) was −0.573 and the “percentage of expressing cells” value (gene Gpx4) was 0.818. For the same molecule, the “LN (average fold change)” value (gene Gpx4) was −0.345, the “percentage of expressing cells” value (gene H2-Q4) was 0.246 and the “LN (average fold change)” value (gene H2-Q4) was −0.675. For the same molecule, the “percentage of expressing cells” value (gene H2afj) was 0.433, the “LN (average fold change)” value (gene H2afj) was 0.452 and the “percentage of expressing cells” value (gene H3f3b) was 0.982. For the same molecule, the “LN (average fold change)” value (gene H3f3b) was 0.286, the “percentage of expressing cells” value (gene Hccs) was 0.243 and the “LN (average fold change)” value (gene Hccs) was 1.079. For the same molecule, the “percentage of expressing cells” value (gene Hmgb1) was 0.552, the “LN (average fold change)” value (gene Hmgb1) was −0.400 and the “percentage of expressing cells” value (gene Igha) was 0.951. The “LN (average fold change)” value (gene Igha) was 0.407, the “percentage of expressing cells” value (gene Igkc) was 0.985 and the “LN (average fold change)” value (gene Igkc) was 0.474. For the same molecule, the “percentage of expressing cells” value (gene Iglc1) was 0.184, the “LN (average fold change)” value (gene Iglc1) was −0.692 and the “percentage of expressing cells” value (gene Irf1) was 0.069. For the same molecule, the “LN (average fold change)” value (gene Irf1) was −1.336, the “percentage of expressing cells” value (gene Itk) was 0.515 and the “LN (average fold change)” value (gene Itk) was 0.495. For the same molecule, the “percentage of expressing cells” value (gene Jarid2) was 0.156, the “LN (average fold change)” value (gene Jarid2) was 1.269 and the “percentage of expressing cells” value (gene Kdm6b) was 0.65. The “LN (average fold change)” value (gene Kdm6b) was 0.555, the “percentage of expressing cells” value (gene Kif23) was 0.102 and the “LN (average fold change)” value (gene Kif23) was −1.129. The “percentage of expressing cells” value (gene Klf4) was 0.336, the “LN (average fold change)” value (gene Klf4) was −0.566 and the “percentage of expressing cells” value (gene Lmna) was 0.045. The “LN (average fold change)” value (gene Lmna) was −1.627, the “percentage of expressing cells” value (gene Ly6a) was 0.055 and the “LN (average fold change)” value (gene Ly6a) was −1.208. The “percentage of expressing cells” value (gene Maff) was 0.399, the “LN (average fold change)” value (gene Maff) was −0.518 and the “percentage of expressing cells” value (gene Mat2a) was 0.288. For the same molecule, the “LN (average fold change)” value (gene Mat2a) was −0.572, the “percentage of expressing cells” value (gene Naca) was 0.839 and the “LN (average fold change)” value (gene Naca) was 0.299. The “percentage of expressing cells” value (gene Ndfip1) was 0.247, the “LN (average fold change)” value (gene Ndfip1) was 0.765 and the “percentage of expressing cells” value (gene Neurl3) was 0.328. The “LN (average fold change)” value (gene Neurl3) was −0.470, the “percentage of expressing cells” value (gene Nfkb1) was 0.81 and the “LN (average fold change)” value (gene Nfkb1) was 0.501. The “percentage of expressing cells” value (gene Nr4a2) was 0.383, the “LN (average fold change)” value (gene Nr4a2) was 0.702 and the “percentage of expressing cells” value (gene Nrgn) was 0.284. For the same molecule, the “LN (average fold change)” value (gene Nrgn) was 1.042, the “percentage of expressing cells” value (gene Nxpe3) was 0.202 and the “LN (average fold change)” value (gene Nxpe3) was 0.974. For the same molecule, the “percentage of expressing cells” value (gene Pfn1) was 0.974, the “LN (average fold change)” value (gene Pfn1) was 0.233 and the “percentage of expressing cells” value (gene Pgm2l1) was 0.065. The “LN (average fold change)” value (gene Pgm2l1) was −0.966, the “percentage of expressing cells” value (gene Pnrc1) was 0.583 and the “LN (average fold change)” value (gene Pnrc1) was −0.457. For the same molecule, the “percentage of expressing cells” value (gene Pole4) was 0.604, the “LN (average fold change)” value (gene Pole4) was 0.415 and the “percentage of expressing cells” value (gene Polr2e) was 0.091. For the same molecule, the “LN (average fold change)” value (gene Polr2e) was −1.019, the “percentage of expressing cells” value (gene Prdx6) was 0.507 and the “LN (average fold change)” value (gene Prdx6) was 0.908. The “percentage of expressing cells” value (gene Psap) was 0.299, the “LN (average fold change)” value (gene Psap) was −0.562 and the “percentage of expressing cells” value (gene Psmb8) was 0.49. For the same molecule, the “LN (average fold change)” value (gene Psmb8) was −0.441, the “percentage of expressing cells” value (gene Psmb10) was 0.219 and the “LN (average fold change)” value (gene Psmb10) was −0.598. For the same molecule, the “percentage of expressing cells” value (gene Ptp4a1) was 0.349, the “LN (average fold change)” value (gene Ptp4a1) was −0.514 and the “percentage of expressing cells” value (gene Ramp3) was 0.561. The “LN (average fold change)” value (gene Ramp3) was 0.516, the “percentage of expressing cells” value (gene Rheb) was 0.536 and the “LN (average fold change)” value (gene Rheb) was 0.631. The “percentage of expressing cells” value (gene Rnf19b) was 0.279, the “LN (average fold change)” value (gene Rnf19b) was 0.971 and the “percentage of expressing cells” value (gene Rsrp1) was 0.24. The “LN (average fold change)” value (gene Rsrp1) was −0.708, the “percentage of expressing cells” value (gene Saraf) was 0.304 and the “LN (average fold change)” value (gene Saraf) was −0.533. The “percentage of expressing cells” value (gene Scp2) was 0.382, the “LN (average fold change)” value (gene Scp2) was −0.568 and the “percentage of expressing cells” value (gene Sepp1) was 0.254. For the same molecule, the “LN (average fold change)” value (gene Sepp1) was −0.824, the “percentage of expressing cells” value (gene Serp1) was 0.554 and the “LN (average fold change)” value (gene Serp1) was −0.529. For the same molecule, the “percentage of expressing cells” value (gene Srsf7) was 0.251, the “LN (average fold change)” value (gene Srsf7) was −0.443 and the “percentage of expressing cells” value (gene Tgfb1) was 0.457. The “LN (average fold change)” value (gene Tgfb1) was 0.625, the “percentage of expressing cells” value (gene Tgoln1) was 0.215 and the “LN (average fold change)” value (gene Tgoln1) was −0.572. For the same molecule, the “percentage of expressing cells” value (gene Tiparp) was 0.18, the “LN (average fold change)” value (gene Tiparp) was −0.904 and the “percentage of expressing cells” value (gene Tmem64) was 0.41. The “LN (average fold change)” value (gene Tmem64) was 0.605, the “percentage of expressing cells” value (gene Tmsb4x) was 1 and the “LN (average fold change)” value (gene Tmsb4x) was 0.195. For the same molecule, the “percentage of expressing cells” value (gene Tmsb10) was 0.942, the “LN (average fold change)” value (gene Tmsb10) was −0.240 and the “percentage of expressing cells” value (gene Tnfaip3) was 0.534. The “LN (average fold change)” value (gene Tnfaip3) was −0.487, the “percentage of expressing cells” value (gene Tnfaip8) was 0.518 and the “LN (average fold change)” value (gene Tnfaip8) was 0.740. The “percentage of expressing cells” value (gene Tpm4) was 0.394, the “LN (average fold change)” value (gene Tpm4) was 0.964 and the “percentage of expressing cells” value (gene Tspan13) was 0.699. For the same molecule, the “LN (average fold change)” value (gene Tspan13) was −0.366, the “percentage of expressing cells” value (gene Tspan32) was 0.073 and the “LN (average fold change)” value (gene Tspan32) was −0.997. The “percentage of expressing cells” value (gene Ubc) was 0.303, the “LN (average fold change)” value (gene Ubc) was −0.542 and the “percentage of expressing cells” value (gene Ucp2) was 0.612. The “LN (average fold change)” value (gene Ucp2) was 0.519, the “percentage of expressing cells” value (gene Uhrf2) was 0.296 and the “LN (average fold change)” value (gene Uhrf2) was −0.506. For the same molecule, the “percentage of expressing cells” value (gene Uqcrh) was 0.765, the “LN (average fold change)” value (gene Uqcrh) was 0.450 and the “percentage of expressing cells” value (gene Usmg5) was 0.509. The “LN (average fold change)” value (gene Usmg5) was −0.414, the “percentage of expressing cells” value (gene Vmp1) was 0.239 and the “LN (average fold change)” value (gene Vmp1) was 1.019. The “percentage of expressing cells” value (gene Zc3h12a) was 0.157, the “LN (average fold change)” value (gene Zc3h12a) was −0.866 and the “percentage of expressing cells” value (gene Zfp36l2) was 0.49. For the same molecule, the “LN (average fold change)” value (gene Zfp36l2) was 0.453, the “percentage of expressing cells” value (gene Zrsr1) was 0.242 and the “LN (average fold change)” value (gene Zrsr1) was −0.652.
